Measured values taken from paper PMC2650391 (2009).

Target: Histone H3K4me3 peptide (Homo sapiens, UniProt P68431)

B1: ING4 PHD (protein)
chain: PNEPTYCLCHQVSYGEMIGCDNPDCSIEWFHFACVGLTTKPRGKWFCPRCSQERKK
Kd: 7.9 µM
